Experimental data from patent US20160052993A1.
pKd: −log10 of the molar value.

Columns and labels:
[1] = molecular target: single-chain human FcRn, FLAG/His-tagged (human) (UniProt P61769); assay: ELISA, HSA variant immobilised, schFcRn titrated, pH 5.5 (asterisk)
hFcRn (human) = hFcRn (human) (UniProt P61769); assay: ELISA; conditions: other; remark: other sources report otherwise
Sequence of hFcRn (human) (P55899 24-297, chain 1 of 2): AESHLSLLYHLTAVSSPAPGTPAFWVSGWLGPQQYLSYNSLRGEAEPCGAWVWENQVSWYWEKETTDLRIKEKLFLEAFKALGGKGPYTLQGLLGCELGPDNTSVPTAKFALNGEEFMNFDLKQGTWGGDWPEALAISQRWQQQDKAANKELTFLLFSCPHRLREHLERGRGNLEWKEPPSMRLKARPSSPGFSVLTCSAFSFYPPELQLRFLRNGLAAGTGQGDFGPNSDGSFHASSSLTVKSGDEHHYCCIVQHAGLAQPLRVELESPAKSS
Sequence of hFcRn (human) (P61769 21-119, chain 2 of 2): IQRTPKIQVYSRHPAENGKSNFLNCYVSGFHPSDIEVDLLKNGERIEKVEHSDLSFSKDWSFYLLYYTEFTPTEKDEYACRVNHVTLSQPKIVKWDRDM

“HSA18 (V424I) (from UniProt P02768 25-609)” was tested, and the pKd [1] was 6.60.
“HSA13+H510F (from UniProt P02768 25-609)” gave a pKd (hFcRn (human)) of 7.49.
With “HSA13+H535F (from UniProt P02768 25-609)” the pKd (hFcRn (human)) was 7.04.
